Experimental data: publication PMC9482650, “Quantitative fragmentomics allow affinity mapping of interactomes” (Nature Communications, 2022)

How the values were obtained:
Assay in all cases: holdup assay
Set-up in all cases: key: below the threshold = too weak to quantify, mostly under pKd 3.1 to 4
Conditions in all cases: plain residues with an end cap or a label only (N-terminal biotin on a linker: ado-ado)
[1] = molecular target: PICK1, Q9NRD5
[2] = molecular target: T1, RHPN1, Q8TCX5
T1 sequence (Q8TCX5 508-602, limits assumed, looked up): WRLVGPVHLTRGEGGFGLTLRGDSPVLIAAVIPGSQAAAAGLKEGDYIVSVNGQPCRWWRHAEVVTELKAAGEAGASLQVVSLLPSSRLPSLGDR

[3] = molecular target: FRMPD2_1, Q68DX3
[4] = molecular target: FRMPD2_3, Q68DX3
[5] = molecular target: PDZRN4_1, Q6ZMN7
[6] = molecular target: FRMPD4, Q14CM0
[7] = molecular target: TJP2_1, Q9UDY2
[8] = molecular target: IL16_3, Q14005
[9] = molecular target: T2, TJP3_3, O95049
T2 sequence (O95049 375-456, limits assumed, looked up): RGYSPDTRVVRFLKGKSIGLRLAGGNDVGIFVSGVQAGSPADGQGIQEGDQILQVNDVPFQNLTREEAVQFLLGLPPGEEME

[10] = molecular target: T3, SYNJ2BP, P57105
T3 sequence (P57105 8-110, limits assumed, looked up): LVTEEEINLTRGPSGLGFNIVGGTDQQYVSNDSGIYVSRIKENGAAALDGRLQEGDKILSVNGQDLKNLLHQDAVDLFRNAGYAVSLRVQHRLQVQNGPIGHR

[11] = molecular target: Inadl_5, Q8NI35
[12] = molecular target: T4, LIN7C, Q9NUP9
T4 sequence (Q9NUP9 88-185, limits assumed, looked up): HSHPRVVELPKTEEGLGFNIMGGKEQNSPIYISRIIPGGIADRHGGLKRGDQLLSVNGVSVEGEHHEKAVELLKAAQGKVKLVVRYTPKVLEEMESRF

[13] = molecular target: DLG1_2, Q12959
[14] = molecular target: HTRA2, O43464
[15] = molecular target: T5, SNTG2, Q9NY99
T5 sequence (Q9NY99 68-166, limits assumed, looked up): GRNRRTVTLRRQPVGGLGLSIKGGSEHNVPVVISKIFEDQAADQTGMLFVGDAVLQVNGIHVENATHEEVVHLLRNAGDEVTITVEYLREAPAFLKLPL

[16] = molecular target: SCRIB_2, Q14160
[17] = molecular target: MAGI3_2, Q5TCQ9
[18] = molecular target: LNX1_1, Q8TBB1
[19] = molecular target: MAGI1_1, Q96QZ7
[20] = molecular target: DLG4_2, P78352
[21] = molecular target: T6, SHANK1, Q9Y566
T6 sequence (Q9Y566 658-767, limits assumed, looked up): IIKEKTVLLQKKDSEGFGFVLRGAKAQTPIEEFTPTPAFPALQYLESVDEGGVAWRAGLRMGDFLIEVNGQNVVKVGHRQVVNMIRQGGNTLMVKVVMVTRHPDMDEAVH

[22] = molecular target: Inadl_10, Q8NI35
[23] = molecular target: T7, MPDZ_12, O75970
T7 sequence (O75970 1857-1958, limits assumed, looked up): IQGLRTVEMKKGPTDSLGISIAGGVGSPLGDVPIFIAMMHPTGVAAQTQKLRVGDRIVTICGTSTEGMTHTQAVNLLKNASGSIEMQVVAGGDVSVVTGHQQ

[24] = molecular target: FRMPD3, Q5JV73
[25] = molecular target: Inadl_8, Q8NI35
[26] = molecular target: T8, DFNB31_1, Q9P202
T8 sequence (Q9P202 135-233, limits assumed, looked up): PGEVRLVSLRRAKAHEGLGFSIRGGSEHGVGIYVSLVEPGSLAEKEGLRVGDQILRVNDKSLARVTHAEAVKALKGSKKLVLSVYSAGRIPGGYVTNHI

[27] = molecular target: T9, LRRC7, Q96NW7
T9 sequence (Q96NW7 1440-1537, limits assumed, looked up): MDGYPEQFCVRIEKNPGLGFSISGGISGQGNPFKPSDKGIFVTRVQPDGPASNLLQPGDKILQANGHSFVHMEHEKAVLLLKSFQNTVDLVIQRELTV

[28] = molecular target: NHERF4_1, Q86UT5-2
Sequence of NHERF4_1, Q86UT5-2 (Q86UT5 other isoform, or with tags, fused parts or gaps): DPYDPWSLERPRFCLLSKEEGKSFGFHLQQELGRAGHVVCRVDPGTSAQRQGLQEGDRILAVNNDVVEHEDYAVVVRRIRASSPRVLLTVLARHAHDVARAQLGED

Sequence of IL16_3, Q14005 (Q14005 1107-1207): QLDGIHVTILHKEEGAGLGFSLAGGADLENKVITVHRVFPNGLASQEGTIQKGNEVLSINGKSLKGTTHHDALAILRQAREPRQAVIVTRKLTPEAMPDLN
Sequence of FRMPD2_1, Q68DX3 (Q68DX3 770-861): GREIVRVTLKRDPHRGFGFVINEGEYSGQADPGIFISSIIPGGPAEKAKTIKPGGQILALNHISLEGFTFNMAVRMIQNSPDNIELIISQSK
Sequence of FRMPD3, Q5JV73 (Q5JV73 12-100): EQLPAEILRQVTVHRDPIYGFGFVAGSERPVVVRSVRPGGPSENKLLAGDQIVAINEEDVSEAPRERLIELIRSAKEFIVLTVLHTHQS
Sequence of MAGI3_2, Q5TCQ9 (Q5TCQ9 398-503): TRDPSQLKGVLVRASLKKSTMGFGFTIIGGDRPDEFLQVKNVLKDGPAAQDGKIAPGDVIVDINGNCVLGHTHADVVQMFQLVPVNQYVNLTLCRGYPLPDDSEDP
Sequence of SCRIB_2, Q14160 (Q14160 857-960): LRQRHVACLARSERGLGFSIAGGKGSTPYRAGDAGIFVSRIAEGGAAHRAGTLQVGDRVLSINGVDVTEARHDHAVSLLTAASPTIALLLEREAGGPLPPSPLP
Sequence of HTRA2, O43464 (O43464 355-458): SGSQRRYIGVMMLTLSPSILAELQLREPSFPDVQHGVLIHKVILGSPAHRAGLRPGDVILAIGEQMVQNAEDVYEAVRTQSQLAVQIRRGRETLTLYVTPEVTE
Sequence of MAGI1_1, Q96QZ7 (Q96QZ7 1-106): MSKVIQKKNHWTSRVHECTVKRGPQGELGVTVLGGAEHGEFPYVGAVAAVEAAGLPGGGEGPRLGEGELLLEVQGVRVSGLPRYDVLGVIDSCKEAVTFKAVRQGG
Sequence of Inadl_5, Q8NI35 (Q8NI35 673-780): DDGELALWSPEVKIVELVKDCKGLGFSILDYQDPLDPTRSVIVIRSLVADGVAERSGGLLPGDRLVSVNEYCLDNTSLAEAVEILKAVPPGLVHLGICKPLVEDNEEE
Sequence of DLG1_2, Q12959 (Q12959 314-412): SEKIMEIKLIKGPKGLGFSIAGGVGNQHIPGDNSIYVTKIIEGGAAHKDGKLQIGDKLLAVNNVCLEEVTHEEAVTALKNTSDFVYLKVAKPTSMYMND
Sequence of Inadl_8, Q8NI35 (Q8NI35 1425-1530): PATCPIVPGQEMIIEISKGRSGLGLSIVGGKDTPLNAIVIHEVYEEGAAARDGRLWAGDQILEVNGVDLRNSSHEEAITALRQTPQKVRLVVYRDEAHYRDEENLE
Sequence of Inadl_10, Q8NI35 (Q8NI35 1673-1763): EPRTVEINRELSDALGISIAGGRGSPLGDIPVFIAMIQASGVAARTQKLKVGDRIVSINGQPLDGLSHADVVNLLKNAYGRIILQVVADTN
Sequence of PDZRN4_1, Q6ZMN7 (Q6ZMN7 213-318): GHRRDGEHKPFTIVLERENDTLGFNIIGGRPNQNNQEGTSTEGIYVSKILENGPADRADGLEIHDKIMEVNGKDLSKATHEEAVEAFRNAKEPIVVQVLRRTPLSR
Sequence of DLG4_2, P78352 (P78352 155-259): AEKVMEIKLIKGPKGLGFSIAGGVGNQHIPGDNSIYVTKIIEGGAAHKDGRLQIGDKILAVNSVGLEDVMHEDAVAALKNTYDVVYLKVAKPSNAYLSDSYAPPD
Sequence of FRMPD2_3, Q68DX3 (Q68DX3 1073-1166): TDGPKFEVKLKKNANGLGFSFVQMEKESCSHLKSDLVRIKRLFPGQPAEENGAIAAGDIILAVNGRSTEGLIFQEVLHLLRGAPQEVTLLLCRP
Sequence of LNX1_1, Q8TBB1 (Q8TBB1 261-371): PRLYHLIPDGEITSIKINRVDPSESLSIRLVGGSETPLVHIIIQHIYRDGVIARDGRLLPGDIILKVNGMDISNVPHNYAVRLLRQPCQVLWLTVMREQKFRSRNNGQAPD
Sequence of TJP2_1, Q9UDY2 (Q9UDY2 24-128): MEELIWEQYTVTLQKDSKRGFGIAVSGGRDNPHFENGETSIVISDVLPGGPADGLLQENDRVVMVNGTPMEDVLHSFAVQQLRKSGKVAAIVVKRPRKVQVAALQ
Sequence of FRMPD4, Q14CM0 (Q14CM0 67-160): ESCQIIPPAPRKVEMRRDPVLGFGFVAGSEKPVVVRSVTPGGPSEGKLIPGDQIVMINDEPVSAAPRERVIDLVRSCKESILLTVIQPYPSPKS
Sequence of PICK1, Q9NRD5 (Q9NRD5 17-115): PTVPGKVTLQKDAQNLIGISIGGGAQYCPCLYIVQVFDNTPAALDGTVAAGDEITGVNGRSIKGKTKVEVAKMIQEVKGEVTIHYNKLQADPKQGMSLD

Binder: ARGPPRESEV [FAM110D, Q8TAY7]
- pKd [1]: below the threshold
- pKd [2]: 3.76
- pKd [3]: below the threshold
- pKd [4]: below the threshold
- pKd [5]: 4.4
- pKd [6]: below the threshold
- pKd [7]: below the threshold
- pKd [8]: below the threshold
- pKd [9]: below the threshold
- pKd [10]: 5.35
- pKd [11]: below the threshold
- pKd [12]: 3.67
- pKd [13]: 5.48
- pKd [14]: below the threshold
- pKd [15]: 4.4
- pKd [16]: 4.9
- pKd [17]: 5.03
- pKd [18]: 3.78
- pKd [19]: below the threshold
- pKd [20]: 5.63
- pKd [21]: below the threshold
- pKd [22]: below the threshold
- pKd [23]: below the threshold
- pKd [24]: below the threshold
- pKd [25]: 3.81
- pKd [26]: 3.75
- pKd [27]: 4.15
- pKd [28]: below the threshold

Binder: ARSAAASNYV [CLDN4, O14493]
- pKd [1]: 4.15
- pKd [2]: below the threshold
- pKd [3]: below the threshold
- pKd [4]: below the threshold
- pKd [5]: 3.66
- pKd [6]: below the threshold
- pKd [7]: 3.92
- pKd [8]: below the threshold
- pKd [9]: 3.65
- pKd [10]: 3.85
- pKd [11]: 3.68
- pKd [12]: 3.99
- pKd [13]: below the threshold
- pKd [14]: below the threshold
- pKd [15]: below the threshold
- pKd [16]: below the threshold
- pKd [17]: below the threshold
- pKd [18]: 3.57
- pKd [19]: below the threshold
- pKd [20]: below the threshold
- pKd [21]: below the threshold
- pKd [22]: below the threshold
- pKd [23]: below the threshold
- pKd [24]: below the threshold
- pKd [25]: 4.06
- pKd [26]: below the threshold
- pKd [27]: below the threshold
- pKd [28]: 3.7

Binder: PTPDLPQTRV [KLHDC7A, Q5VTJ3]
- pKd [1]: 4.18
- pKd [2]: 4.32
- pKd [3]: below the threshold
- pKd [4]: below the threshold
- pKd [5]: 3.59
- pKd [6]: 3.48
- pKd [7]: below the threshold
- pKd [8]: below the threshold
- pKd [9]: below the threshold
- pKd [10]: below the threshold
- pKd [11]: below the threshold
- pKd [12]: 3.49
- pKd [13]: 3.53
- pKd [14]: below the threshold
- pKd [15]: 5.24
- pKd [16]: 3.48
- pKd [17]: 3.79
- pKd [18]: 3.89
- pKd [19]: below the threshold
- pKd [20]: 3.5
- pKd [21]: 4.5
- pKd [22]: below the threshold
- pKd [23]: below the threshold
- pKd [24]: below the threshold
- pKd [25]: 4.36
- pKd [26]: 4.79
- pKd [27]: below the threshold
- pKd [28]: below the threshold

Binder: QRPYRRGSEI [KCNJ18, B7U540]
- pKd [1]: below the threshold
- pKd [2]: 3.75
- pKd [3]: below the threshold
- pKd [4]: below the threshold
- pKd [5]: below the threshold
- pKd [6]: below the threshold
- pKd [7]: below the threshold
- pKd [8]: below the threshold
- pKd [9]: below the threshold
- pKd [10]: 4.91
- pKd [11]: below the threshold
- pKd [12]: 3.92
- pKd [13]: 3.51
- pKd [14]: below the threshold
- pKd [15]: below the threshold
- pKd [16]: 3.49
- pKd [17]: 3.99
- pKd [18]: 3.83
- pKd [19]: below the threshold
- pKd [20]: 3.66
- pKd [21]: below the threshold
- pKd [22]: below the threshold
- pKd [23]: 3.56
- pKd [24]: below the threshold
- pKd [25]: 3.69
- pKd [26]: 3.9
- pKd [27]: below the threshold
- pKd [28]: below the threshold
